From article PMC5026484 (eLife, 2016)

B1: Rab8a, full length, loaded with GppNHp (natural protein, human, UniProt P61006 1-207, looked up)
chain: MAKTYDYLFKLLLIGDSGVGKTCVLFRFSEDAFNSTFISTIGIDFKIRTIELDGKRIKLQIWDTAGQERFRTITTAYYRGAMGIMLVYDITNEKSFDNIRNWIRNIEEHASADVEKMILGNKCDVNDKRQVSKERGEKLALDYGIKFMETSAKANINVENAFFTLARDIKAKMDKKLEGNSPQGSNQGVKITPDQQKRSSFFRCVLL
notes: Rab8a, human; called Rab8 in the results and Rab8aFl in the crystallisation methods; also called Rab8aFl; source: expressed and purified as described previously (Bleimling et al., 2009), loaded with GppNHp, gel filtration
B2: bMERB domain (Rab binding domain) of Mical-3, residues 1841-1990 (domain or fragment, human, UniProt Q7RTP6 1841-1990, looked up)
chain: KQEELKRLHRAQIIQRQLQQVEERQRRLEERGVAVEKALRGEAGMGKKDDPKLMQEWFKLVQEKNAMVRYESELMIFARELELEDRQSRLQQELRERMAVEDHLKTEEELSEEKQILNEMLEVVEQRDSLVALLEEQRLREREEDKDLEA
notes: Mical-3, human, whole predicted bMERB domain, residues 1841-1990 (isoform 1); printed elsewhere as 1841-1992; Limits are stated for the crystallised selenomethionine construct; also called Mical-3_(1841-1990); RBD of Mical-3
B3: bMERB domain (Rab binding domain) of EHBP1 (domain or fragment)
chain: not shown
notes: EHBP1 1047-1231 (bMERB domain with CaaX box) is named for the prenylation and localisation experiments only; also called RBD of EHBP1
B4: bMERB domain (Rab binding domain) of Mical-cL, residues 534-683 (domain or fragment, human, UniProt O94851 1796-1945, looked up)
chain: KQEELKRLYKAQAIQRQLEEVEERQRASEIQGVRLEKALRGEADSGTQDEAQLLQEWFKLVLEKNKLMRYESELLIMAQELELEDHQSRLEQKLREKMLKEESQKDEKDLNEEQEVFTELMQVIEQRDKLVDSLEEQRIREKAEDQHFES
notes: Mical C-terminal like protein (Mical-cL), human, bMERB domain, residues 534-683; Limits are stated for the crystallised construct; also called Mical-cL_(534-683); RBD of Mical-cL

Assays:
[1] = target: T1, bMERB domain (Rab binding domain) of Mical-1, residues 918-1067 (human, UniProt Q8TDZ2 918-1067); assay: ITC; iTC200, 25°C; 400 µM Rab titrated into 20–40 µM bMERB domain in the cell; 20 mM Hepes pH 7.5, 50 mM NaCl, 2 mM MgCl2, 1 mM TCEP; details: both partners purified
T1 construct: Mical-1, human, bMERB domain, residues 918-1067 (isoform 1); Limits are stated for the crystallised construct; also called Mical-1_(918-1067); RBD of Mical-1
T1 sequence (looked up): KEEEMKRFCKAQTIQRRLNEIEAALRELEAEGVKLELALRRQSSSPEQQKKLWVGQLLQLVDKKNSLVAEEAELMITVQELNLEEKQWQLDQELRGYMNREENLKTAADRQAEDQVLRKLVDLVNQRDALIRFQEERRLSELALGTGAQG

[2] = target: B2; assay: as above; details: both partners purified
[3] = target: T2, bMERB domain (Rab binding domain) of EHBP1L1 (human, UniProt Q8N3D4 1340-1523); assay: as above; details: both partners purified
T2 construct: EHBP1L1, human, bMERB domain; EHBP1L1 1340-1523 (bMERB domain with CaaX box) is named for the prenylation and localisation experiments only; also called RBD of EHBP1L1

[4] = target: B2; assay: SEC; analytical size exclusion chromatography with varying ratios of Rab8 and bMERB domain (1.2:1, 1.6:1, 2.2:1; effector 113 µM, Rab 130, 180 or 250 µM); stoichiometry from the peak of free excess Rab8; details: both partners purified
[5] = target: B3; assay: ITC; iTC200, 25°C; 400 µM Rab titrated into 20–40 µM bMERB domain in the cell; 20 mM Hepes pH 7.5, 50 mM NaCl, 2 mM MgCl2, 1 mM TCEP; details: both partners purified
[6] = target: B4; assay: as above; details: both partners purified
[7] = target: T1, bMERB domain (Rab binding domain) of …; assay: as above; details: both partners purified; remark: listed apart in the source
[8] = target: B2; assay: as above; details: both partners purified; remark: listed apart in the source
[9] = target: T2, bMERB domain (Rab binding domain) of …; assay: as above; details: both partners purified; remark: listed apart in the source
[10] = target: the molecule itself; assay: SEC; analytical size exclusion chromatography of the bMERB domain alone (112.5 µM); apparent size from the retention
[11] = target: T3, Rab10, full length, loaded with GppNHp (human, UniProt P61026 1-200); assay: SEC; analytical size exclusion chromatography, Superdex S75 10/300 GL; 130 µM Rab:GppNHp + 112.5 µM (113 µM) bMERB domain; 20 mM Hepes pH 7.5, 50 mM NaCl, 2 mM DTE, 2 mM MgCl2; details: both partners purified
T3 construct: Rab10, human; Rab10Fl in the crystallisation methods; also called Rab10Fl; source: expressed and purified as described previously (Bleimling et al., 2009), loaded with GppNHp, gel filtration
T3 sequence (looked up): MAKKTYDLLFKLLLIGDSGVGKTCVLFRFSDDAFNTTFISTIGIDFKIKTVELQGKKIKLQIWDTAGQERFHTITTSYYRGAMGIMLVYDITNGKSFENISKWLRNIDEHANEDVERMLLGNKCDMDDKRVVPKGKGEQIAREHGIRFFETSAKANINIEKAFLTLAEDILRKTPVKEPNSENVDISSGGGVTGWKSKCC

[12] = target: B1; assay: as above; details: both partners purified
[13] = target: B1; assay: ITC; iTC200, 25°C; 400 µM Rab titrated into 20–40 µM bMERB domain in the cell; 20 mM Hepes pH 7.5, 50 mM NaCl, 2 mM MgCl2, 1 mM TCEP; details: both partners purified
[14] = target: T4, Rab13, loaded with GppNHp (UniProt P51153 1-203); assay: as above; details: both partners purified
T4 construct: Rab13; also called Rab13:GppNHp; source: expressed and purified as described previously (Bleimling et al., 2009), loaded with GppNHp, gel filtration
T4 sequence (looked up): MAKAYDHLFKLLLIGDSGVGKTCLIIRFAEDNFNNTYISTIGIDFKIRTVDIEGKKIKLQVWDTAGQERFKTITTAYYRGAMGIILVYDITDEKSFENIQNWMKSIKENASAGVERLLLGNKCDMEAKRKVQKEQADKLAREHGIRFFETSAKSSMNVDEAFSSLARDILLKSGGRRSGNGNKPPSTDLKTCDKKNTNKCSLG

[15] = target: T3, Rab10, full length, loaded with GppNHp; assay: as above; details: both partners purified
[16] = target: T5, Rab15, loaded with GppNHp (UniProt P59190 1-212); assay: as above; details: both partners purified
T5 construct: Rab15; source: expressed and purified as described previously (Bleimling et al., 2009), loaded with GppNHp, gel filtration
T5 sequence (looked up): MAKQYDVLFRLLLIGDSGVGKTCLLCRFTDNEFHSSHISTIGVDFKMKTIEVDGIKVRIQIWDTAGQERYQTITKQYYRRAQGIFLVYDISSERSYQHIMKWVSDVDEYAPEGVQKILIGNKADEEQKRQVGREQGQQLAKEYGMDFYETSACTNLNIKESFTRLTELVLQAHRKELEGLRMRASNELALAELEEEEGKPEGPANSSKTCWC

[17] = target: T4, Rab13, loaded with GppNHp; assay: as above; details: both partners purified; remark: listed apart in the source
[18] = target: B1; assay: as above; details: both partners purified; remark: listed apart in the source

T2 sequence (Q8N3D4 1340-1523): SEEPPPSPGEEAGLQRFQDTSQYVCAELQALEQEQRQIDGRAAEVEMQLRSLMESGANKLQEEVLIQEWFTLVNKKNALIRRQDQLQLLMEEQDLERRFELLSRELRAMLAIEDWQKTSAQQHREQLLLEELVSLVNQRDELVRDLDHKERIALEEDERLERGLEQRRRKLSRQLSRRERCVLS

B1
KD,1 (two-site fit) [1]: 55.5 nM
KD,1 (two-site fit) [2]: 27.9 nM
KD,1 (two-site fit) [3]: 159 nM
stoichiometry N [4]: 1
stoichiometry N [5]: 1
stoichiometry N [6]: 1
stoichiometry N [7]: 2
stoichiometry N [8]: 2
stoichiometry N [9]: 2

B2
stoichiometry N [10]: 2
binding result [11]: binds
binding result [12]: binds

B3
Kd [13]: 397 nM

B4
stoichiometry N [10]: 2
Kd [14]: 94 nM
Kd [15]: 790 nM
Kd [16]: 33 nM
Kd [13]: 253 nM
Kd [17]: 93 nM
Kd [18]: 233 nM
